Data: patent US20260053903A1

Molecular target: dendritic cell-specific intercellular adhesion molecule-3-grabbing nonintegrin (DC-SIGN) (UniProt Q9NNX6)
Test: cell-based or functional assay

Chain of UniProt Q9NNX6 (Q9NNX6 whole entry): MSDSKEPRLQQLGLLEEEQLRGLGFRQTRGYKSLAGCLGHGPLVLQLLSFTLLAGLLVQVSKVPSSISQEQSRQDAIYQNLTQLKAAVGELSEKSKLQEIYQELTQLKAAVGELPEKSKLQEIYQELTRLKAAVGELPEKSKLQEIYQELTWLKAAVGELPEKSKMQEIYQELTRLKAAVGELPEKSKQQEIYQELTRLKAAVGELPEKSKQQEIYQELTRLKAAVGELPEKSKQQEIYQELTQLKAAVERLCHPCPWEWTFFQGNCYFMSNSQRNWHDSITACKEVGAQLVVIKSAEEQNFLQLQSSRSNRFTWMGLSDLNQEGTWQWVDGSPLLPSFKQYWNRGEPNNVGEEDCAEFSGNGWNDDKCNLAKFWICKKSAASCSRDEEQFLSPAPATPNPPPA

## Man-OvaI/II (combination of particles PP7-Man900-OvaI100 and PP7-Man900-OvaII100) (from UniProt P03630 2-127)
  uptake of fluorophore-labeled VLPs by moDCs over 30 min (flow cytometry) (fold against PE-OvaI/II): 5
